Assay [1] has as its target hemagglutinin (HA) of A/Vietnam/1194/04 (H5N1) on MLV(HA) pseudotyped virions (influenza A virus A/Vietnam/1194/04 (H5N1)).
Substrate in assay [2]: F protein of RSV (Long strain) (human respiratory syncytial virus, Long strain) (UniProt P12568)
Briefly: cell-based or functional assay.

Positions count from the first letter of the chain named.

F protein of RSV (Long strain) (human respiratory syncytial virus, Long strain), sequence (P12568 26-574): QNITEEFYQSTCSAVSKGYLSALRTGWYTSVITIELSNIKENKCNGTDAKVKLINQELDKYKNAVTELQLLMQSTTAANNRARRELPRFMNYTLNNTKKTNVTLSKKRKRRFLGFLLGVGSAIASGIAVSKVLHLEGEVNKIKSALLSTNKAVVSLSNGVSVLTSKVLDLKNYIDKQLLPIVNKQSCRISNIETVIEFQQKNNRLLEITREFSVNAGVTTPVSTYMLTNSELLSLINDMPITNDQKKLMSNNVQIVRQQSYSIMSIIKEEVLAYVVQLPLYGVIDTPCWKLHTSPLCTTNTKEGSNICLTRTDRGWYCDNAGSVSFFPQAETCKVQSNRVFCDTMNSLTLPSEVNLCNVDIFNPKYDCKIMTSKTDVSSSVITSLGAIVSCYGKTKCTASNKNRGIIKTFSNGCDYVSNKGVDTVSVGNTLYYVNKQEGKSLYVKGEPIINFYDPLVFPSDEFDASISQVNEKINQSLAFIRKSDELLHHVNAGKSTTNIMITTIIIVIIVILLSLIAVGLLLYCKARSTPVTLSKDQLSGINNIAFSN

B1: 203-B12 (VHH)
VHH: EVQLVESGGGLVQPGGSLRLSCAASGFTFSSYAMGWVRRAPGEGLEWVSSISSGGALPTYADSVKGRFTISRDNVKNTLYLQMNSLKPEDTAVYSCEKYAGSMWTSERDAWGQGTQVTVSS
The molecule B1 displayed an IC50 (read off the curve) in assay [1] of 10 nM.

B2: 203-H9 (VHH)
VHH: EVQLVESGGGLVQPGGSLRLSCTGSGFTFSSYWMDWVRQTPGKDLEYVSGISPSGGNTDYADSVKGRFTISRDNAKNTLYLQMNSLQPEDTALYYCRRSLTLTDSPDLRSQGTQVTVSS
On to B2, for which the IC50 (read off the curve) in assay [1] amounted to 8 nM.

B3: 202-C8 (VHH)
VHH: B2 VHH with G56S, Q87K
B3 gave an IC50 (read off the curve) in assay [1] of 10 nM.

B4: building block of RSV407 (monovalent) (VHH)
VHH: EVQLVESGGGLVQAGGSLSISCAASGGSLSNYVLGWFRQAPGKEREFVAAINWRGDITIGPPNVEGRFTISRDNAKNTGYLQMNSLAPDDTAVYYCGAGTPLNPGAYIYDWSYDYWGRGTQVTVSS
For B4, the IC50, neutralization of RSV infection, Long strain in assay [2] fell in the range of 50 to 100 nM.

The values are drawn from patent US20160280799A1.
